{"source": "patent US5981483A", "about": "“Compositions comprising modulators of cytokines of the TGF-β superfamily” (Mount Sinai Hospital Corporation, priority 1997, dated 1999)", "molecules": {"B1": {"name": "h-Fetuin: adult human fetuin/α2-HS glycoprotein (Calbiochem) (protein)", "chain": "APHGPGLIYRQPNCDDPETEEAALVAIDYINQNLPWGYKHTLNQIDEVKVWPQQPSGELFEIEIDTLETTCHVLDPTPVARCSVRQLKEHAVEGDCDFQLLKLDGKFSVVYAKCDSSPDSAEDVRKVCQDCPLLAPLNDTRVVHAAKAALAAFNAQNNGSNFQLEEISRAQLVPLPPSTYVEFTVSGTDCVAKEATEAAKCNLLAEKQYGFCKATLSEKLGGAEVAVTCMVFQTQPVSSQPQPEGANEAVPTPVVDPDAPPSPPLGAPGLPPAGSPPDSHVLLAAPPGHQLHRAHYDLRHTFMGVVSLGSPSGEVSHPRKTRTVVQPSVGAAAGPVVPPCPGRIRHFKV"}}, "target": "T1, BMP-2 (Homo sapiens, UniProt P12643)", "T1 construct": "Genetics Institute, Cambridge, Mass; (gift)", "T1 sequence (P12643 283-396)": "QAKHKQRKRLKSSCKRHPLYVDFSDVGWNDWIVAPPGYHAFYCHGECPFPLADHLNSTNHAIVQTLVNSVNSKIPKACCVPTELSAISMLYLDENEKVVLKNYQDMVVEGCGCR", "assay": "BIAcore surface plasmon resonance, binding to immobilized BMP-2", "conditions": "Table 2 (calculations repeated); ligand BMP-2", "method": "In this system, a purified protein serving as the ligand is covalently coupled to a carboxymethylated dextran surface, and binding molecules (i.e. the analyte) are passed in a fluid phase across the surface. Binding of the analyte to ligand causes a change in reflected light which is directly proportional to mass bound, and is measured in arbitrary response units (R.U.). Analyte-ligand binding is observed as both increasing response with time during the injection of analyte, and the difference in the position of the baseline before and after injection.\nSchuster, R. V. Swanson, L. A. Alex, R. B. Bourret, M. I. Simon, Nature 365, 343 (1993). 1000 R.U. equals approximately 1 ng/mm^2. The running buffer was 20 mM Hepes (pH 7.2), 150 mM NaCl and the flow rate for all sensorgrams was 3 μl/min.\nRegeneration of the surface to remove bound analyte was done by injection of 10 μl of 20 mM NaOH. To cyclize TRH1 peptides, the material was reduced with 5 mM DTT then brought to a final concentration of 60 μM in 25 mM ammonium acetate (pH 8.5). […]\nData was analyzed using the BIA-evaluation software (Pharmacia Biosensor). The association rate constant, kass, was calculated by first plotting the change in response with time versus response (i.e. dR/dT vs R). […] The affinity constants were calculated from KD =kdiss /kass. […]", "data": [{"molecule": "B1", "values": [{"measurement": "kass", "result": "22000 ± 5000", "unit": "M⁻¹ s⁻¹"}]}]}
